Test results reported in patent publication US20190119348A1, “PARATHYROID HORMONE RECEPTOR 1 ANTAGONIST AND INVERSE AGONIST POLYPEPTIDES AND METHODS OF THEIR USE” (The General Hospital Corporation, priority 2016, published 2019).
Like-named read-outs stand apart in the source and are kept apart here. Where a SMILES comes first, the peptide text is derived from it. Where no end group is shown, it is not given here. [ ]: non-standard residue; d: D form. Nle = CCCC[C@H](N)C(=O)O

T1: PTHR1 (Homo sapiens, UniProt Q03431)
T1 construct: expressed in transfected cells; host or cells: GP-2.3 (HEK-293 stably transfected with hPTHR1 and GloSensor)
T1 sequence (Q03431 27-593): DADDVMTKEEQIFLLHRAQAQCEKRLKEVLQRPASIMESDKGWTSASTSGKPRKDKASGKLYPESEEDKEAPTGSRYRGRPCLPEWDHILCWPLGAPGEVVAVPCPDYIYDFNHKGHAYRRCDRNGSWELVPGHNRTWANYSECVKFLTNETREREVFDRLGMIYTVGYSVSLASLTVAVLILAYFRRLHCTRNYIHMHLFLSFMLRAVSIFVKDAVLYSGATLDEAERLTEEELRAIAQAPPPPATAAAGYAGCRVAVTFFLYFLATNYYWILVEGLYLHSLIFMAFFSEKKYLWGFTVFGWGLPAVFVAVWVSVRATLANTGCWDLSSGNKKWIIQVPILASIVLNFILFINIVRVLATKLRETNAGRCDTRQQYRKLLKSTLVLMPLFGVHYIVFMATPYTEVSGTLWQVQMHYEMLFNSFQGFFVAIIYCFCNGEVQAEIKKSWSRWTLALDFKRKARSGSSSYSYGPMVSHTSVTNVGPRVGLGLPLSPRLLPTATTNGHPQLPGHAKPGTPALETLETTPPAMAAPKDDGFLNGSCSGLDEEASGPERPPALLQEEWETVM

T2: endogenous hPTHR1 (Homo sapiens, UniProt Q03431)
T2 construct: Saos-2, in which is endogenously expressed the hPTHR1; endogenous in cells
T2 sequence (Q03431 27-593): T1 sequence (Q03431 27-593)

T3: human parathyroid hormone receptor 1 (hPTHR1) (human), Q03431
T3 chain: T1 sequence (Q03431 27-593)

B1: dW12, W23-LA-PTH(5-36)-1949 (peptide)
chain: IQLMHQRWKWIQDARRRAWLHKLIAEIHTAEI
modifications: not checked
B2: LA-PTH(5-36)-2012 (peptide)
chain: IQLMHQRAKWIQDARRRAFLHKLIAEIHTAEI-NH2
B3: dW12, Y34-bPTH(7-34)-1894 (peptide)
chain: FMHNLWKHLSSMERVEWLRKKLQDVHNY
modifications: not checked

Tests used:
[1] = molecular target: T1, PTHR1; experiment: Antagonism of PTH(1-34)-induced cAMP response (GloSensor) in GP-2.3 cells; assay type: cell-based
Procedure: cAMP signaling was assessed in the HEK293-derived or SaOS2-derived cell lines stably expressing the luciferase-based GloSensor™ cAMP reporter (Hattersley et al., Paper presented at: Novel Signaling Mechanisms and Bone Cell Biology 2014; Binkowski et al., Methods in molecular biology. 756:263-271). HEK-293 cells were further transfected to stably express the hPTHR1, hPTHR1-H223R, or hPTHR1-T410P. The cells were seeded into 96-well white plates and were assayed 24 to 48 hours post-confluency. Assays were performed at room temperature in CO2-independent culture media (Life Technologies, Corp., Carlsbad, Calif.) containing 0.1% BSA (CIDB). The cells were pre-loaded with luciferin (0.5 mM in CIDB) for 15 minutes, then PTH peptides were added at varying concentrations. cAMP-dependent luminescence was measured at two-minute intervals using a PerkinElmer Envision plate reader. The time at which maximum luminescence (cps) observed with agonist alone, typically at 10-20 minutes after agonist addition, was used to obtain data from wells containing antagonist with or without agonist, to thus generate antagonist ligand dose-response curves. The resulting cps values were then plotted against ligand concentration using GraphPad Prism 7.0 software and a four-parameter logistics curve fitting equation, which yielded parameters of inhibitory potency (pIC50).
Pharmacological properties of the ligands were assessed in cells expressing the PTHR1 and the GloSensor™ cAMP reporter. The assays used GP-2.3 cells, derived from HEK293 cells by stable transfection with the hPTHR1 and GloSensor™, as well as SGS-72 cells, which are derived from the human osteosarcoma cell line, Saos-2, in which is endogenously expressed the hPTHR1, by stable transfection with GloSensor™. Binding of representative polypeptides to the PTHR1 was assessed in GP-2.3 cells by radioligand competition methods (FIGS. 1A and 1B, Table 3).
[…] concentration of antagonist that inhibited the maximum response to PTH(1-34)-induced in the absence of antagonist (at ˜40 minutes) is reported in units of -log M (pIC50), and the corresponding nanomolar value is shown below each pIC50 value. Data are means of the number of experiments indicated (n). The PTH(1-34)-induced maximum luminescence was ˜80,000 cps and the basal was ˜1,000 cps. TMR indicates Lys13 modified at epsilon amino function with TMR, P vs. inhibition by dW12,Y34-bPTH(7-34).

[2] = molecular target: T2, endogenous hPTHR1; experiment: Antagonism of PTH(1-34)- and PTHrP(1-36)-induced cAMP response (GloSensor) in SGS-72 cells; assay type: cell-based; conditions: PTH(1-34) 0.3 nM
Procedure: cAMP signaling was assessed in the HEK293-derived or SaOS2-derived cell lines stably expressing the luciferase-based GloSensorTM cAMP reporter ([…] al., Paper presented at: Novel Signaling Mechanisms and Bone Cell Biology 2014; Binkowski et al., Methods in molecular biology. 756:263-271). HEK-293 cells were further transfected to stably express the hPTHR1, hPTHR1-H223R, or hPTHR1-T410P. The cells were seeded into 96-well white plates and were assayed 24 to 48 hours post-confluency. Assays were performed at room temperature in CO2-independent culture media (Life Technologies, Corp., Carlsbad, Calif.) containing 0.1% BSA (CIDB). The cells were pre-loaded with luciferin (0.5 mM in CIDB) for 15 minutes, then PTH peptides were added at varying concentrations. cAMP-dependent luminescence was measured at two-minute intervals using a PerkinElmer Envision plate reader. The time at which maximum luminescence (cps) observed with agonist alone, typically at 10-20 minutes after agonist addition, was used to obtain data from wells containing antagonist with or without agonist, to thus generate antagonist ligand dose-response curves. The resulting cps values were then plotted against ligand concentration using GraphPad Prism 7.0 software and a four-parameter logistics curve fitting equation, which yielded parameters of inhibitory potency (pIC50). Pharmacological properties of the ligands were assessed in cells expressing the PTHR1 and the GloSensorTM cAMP reporter. The assays used GP-2.3 cells, derived from HEK293 cells by stable transfection with the hPTHR1 and GloSensorTM, as well as SGS-72 cells, which are derived from the human osteosarcoma cell line, Saos-2, in which is endogenously expressed the hPTHR1, by stable transfection with GloSensorTM. Binding of representative polypeptides to the PTHR1 was assessed in GP-2.3 cells by radioligand competition methods (FIGS. 1A and 1B, Table 3). […] In Table 5, antagonist assays were performed in SGS-72 cells (SaOS2 cells with stable GloSensorTM cAMP reporter) at room temperature. […] The mean (±sem) concentration of antagonist that inhibited the maximum agonist-induced response observed in the absence of antagonist (at 40 minutes) is reported in units of -log M (pIC50), and the corresponding nanomolar value is shown below each pIC50 value. Data are means of the number of seven experiments. The PTH(1-34)-induced maximum luminescence was 500,000 cps and the basal was 5,000 cps. TMR indicates Lys13 modified at epsilon amino function with TMR. The data are illustrated in FIG. 7A. […] Date are means (±SEM) of the number of separate experiments indicated by n.

[3] = molecular target: T3, human parathyroid hormone receptor 1 …; experiment: cell-based or functional assay
[4] = molecular target: hPTHR1-H223R (human) (UniProt Q03431); experiment: cell-based or functional assay
[5] = molecular target: T3, human parathyroid hormone receptor 1 …; experiment: radioligand competition on GP-2.3 cells (hPTHR1), tracer 125I-PTHrP(5-36), n=4
[6] = molecular target: T3, human parathyroid hormone receptor 1 …; experiment: radioligand competition on GP-2.3 cells (hPTHR1), tracer 125I-PTH(1-34), n=4
[7] = molecular target: hPTHR1-H223R (human) (UniProt Q03431); experiment: cell-based or functional assay; remark: listed apart in the source

IC50 (nanomolar value of the pIC50), antagonism of PTH(1-34)-induced cAMP response, GP-2.3 cells [3]	IC50 (nanomolar value of the pIC50), antagonism of PTH(1-34)-induced cAMP response, SGS-72 cells [3]	IC50 (nanomolar value of the pIC50), antagonism of PTHrP(1-36)-induced cAMP response, SGS-72 cells [3]	IC50, antagonism of PTH(1-34) (0.3 nM)-induced cAMP response, SGS-72 cells [3]	pIC50, antagonism of PTH(1-34) (0.3 nM)-induced cAMP response, SGS-72 cells [3]	pIC50, antagonism of PTH(1-34)-induced cAMP response (GloSensor), GP-2.3 cells [3]	pIC50, antagonism of PTH(1-34)-induced cAMP response, SGS-72 cells [3]	pIC50, antagonism of PTHrP(1-36)-induced cAMP response, SGS-72 cells [3]	IC50 [5]	pIC50 [5]	IC50 [6]	pIC50 [6]	also measured	Molecule
												PTH(1-34)-induced maximum luminescence ([1]; basal ~1,000 cps): ~80,000 cps; PTH(1-34)-induced maximum luminescence ([2]; basal ~5,000 cps): ~500,000 cps	CC[C@H](C)[C@H](NC(=O)[C@H](CCC(=O)O)NC(=O)[C@H](CO)NC(=O)[C@@H](NC(=O)[C@@H](N)CO)C(C)C)C(=O)N[C@@H](CCC(N)=O)C(=O)N[C@@H](CC(C)C)C(=O)N[C@@H](CCSC)C(=O)N[C@@H](Cc1c[nH]cn1)C(=O)N[C@@H](CC(N)=O)C(=O)N[C@@H](CC(C)C)C(=O)NCC(=O)N[C@@H](CCCCN)C(=O)N[C@@H](Cc1c[nH]cn1)C(=O)N[C@@H](CC(C)C)C(=O)N[C@@H](CC(N)=O)C(=O)N[C@@H](CO)C(=O)N[C@@H](CCSC)C(=O)N[C@@H](CCC(=O)O)C(=O)N[C@@H](CCCNC(=N)N)C(=O)N[C@H](C(=O)N[C@@H](CCC(=O)O)C(=O)N[C@@H](Cc1c[nH]c2ccccc12)C(=O)N[C@@H](CC(C)C)C(=O)N[C@@H](CCCNC(=N)N)C(=O)N[C@@H](CCCCN)C(=O)N[C@@H](CCCCN)C(=O)N[C@@H](CC(C)C)C(=O)N[C@@H](CCC(N)=O)C(=O)N[C@@H](CC(=O)O)C(=O)N[C@H](C(=O)N[C@@H](Cc1c[nH]cn1)C(=O)N[C@@H](CC(N)=O)C(=O)N[C@@H](Cc1ccccc1)C(N)=O)C(C)C)C(C)C [compound 1923, PTH(1-34), reference compound]
												IC50 ([1]; inhibition of PTH(1-34)-induced maximum response, read-out: corresponding nanomolar value of pIC50 (Table 4) (converted)): 224 nM; IC50 ([2]; IC50 PTH(1-34) (Table 6, nanomolar value), antagonist pre-treatment 15 minutes): 4.39 nM	CCCC[C@H](NC(=O)[C@H](CC(C)C)NC(=O)[C@H](CCC(N)=O)NC(=O)[C@@H](N)[C@@H](C)CC)C(=O)N[C@@H](Cc1c[nH]cn1)C(=O)N[C@@H](CCC(N)=O)C(=O)N[C@@H](CCCNC(=N)N)C(=O)N[C@H](Cc1c[nH]c2ccccc12)C(=O)N[C@@H](CCCCN)C(=O)N[C@@H](Cc1c[nH]c2ccccc12)C(=O)N[C@H](C(=O)N[C@@H](CCC(N)=O)C(=O)N[C@@H](CC(=O)O)C(=O)N[C@@H](C)C(=O)N[C@@H](CCCNC(=N)N)C(=O)N[C@@H](CCCNC(=N)N)C(=O)N[C@@H](CCCNC(=N)N)C(=O)N[C@@H](C)C(=O)N[C@@H](Cc1c[nH]c2ccccc12)C(=O)N[C@@H](CC(C)C)C(=O)N[C@@H](Cc1c[nH]cn1)C(=O)N[C@@H](CCCCN)C(=O)N[C@@H](CC(C)C)C(=O)N[C@H](C(=O)N[C@@H](C)C(=O)N[C@@H](CCC(=O)O)C(=O)N[C@H](C(=O)N[C@@H](Cc1c[nH]cn1)C(=O)N[C@H](C(=O)N[C@@H](C)C(=O)N[C@@H](CCC(=O)O)C(=O)N[C@H](C(=O)N[C@@H](CS)C(N)=O)[C@@H](C)CC)[C@@H](C)O)[C@@H](C)CC)[C@@H](C)CC)[C@@H](C)CC [compound 1974, Nle8, dW12, W23, C37-LA-PTH(5-37)] (H-IQL[Nle]HQR[dW]KWIQDARRRAWLHKLIAEIHTAEIC-NH2; N-terminus assumed)
101 nM	1 nM	1 nM	1.45 nM	8.84 -log M	7 -log M	9.11 -log M	9.1 -log M	17.7 nM	7.75 -log M	22.3 nM	7.65 -log M	IC50, antagonism of PTHrP(1-36) (0.3 nM)-induced cAMP response, SGS-72 cells [3]: 1.21 nM; pIC50, antagonism of PTHrP(1-36) (0.3 nM)-induced cAMP response, SGS-72 cells [3]: 8.92 -log M; washout assay: inhibition of the cAMP response to agonist applied after antagonist pre-treatment and rinsing [3]: > 90%; Reduction of basal cAMP, % vehicle; After ligand washout; GHR-10 cells [4]: 30 % vehicle; Reduction of basal cAMP, % vehicle; Ligand @ -6M; GHR-10 cells [4]: 41 % vehicle	B1
												Reduction of basal cAMP, % vehicle; After ligand washout; GHR-10 cells [7]: -49 % vehicle; Reduction of basal cAMP, % vehicle; Ligand @ -6M; GHR-10 cells [7]: -15 % vehicle	B2
377 nM	5 nM	5 nM	14.5 nM	7.84 -log M	6.42 -log M	8.31 -log M	8.33 -log M	35.1 nM	7.46 -log M	28.6 nM	7.54 -log M	pIC50, inhibition of the cAMP signal induced by PTH(1-34) (0.3 nM), SGS-72 cells [3]: 7.2 -log M; pIC50, inhibition of the cAMP signal induced by PTH(1-34) (1 nM), GP-2.3 cells [3]: 6.4 -log M	B3
